{
  "source": "paper PMC7010297",
  "about": "“How the initiating ribosome copes with ppGpp to translate mRNAs” (PLoS Biology, 2020)",
  "molecules": {"B1": {"name": "mTufA: TufA mRNA with full-length 5′ UTR, in vitro transcribed, codes for EF-Tu (nucleic acid)", "chain": "GGUUCUAUCGCCUUUAAAGAAGGCUUUAAGAAAGCGAAACCAGUUCUGCUUGAGCCGAUCAUGAAGGUUGAAGUAGAAACUCCGGAAGAGAACACCGGUGACGUUAUCGGUGACUUGAGCCGUCGUCGUGGUAUGCUCAAAGGUCAGGAAUCUGAAGUUACUGGCGUUAAGAUCCACGCUGAAGUACCGCUGUCUGAAAUGUUCGGAUACGCAACUCAGCUGCGUUCUCUGACCAAAGGUCGUGCAUCAUACACUAUGGAAUUCCUGAAGUAUGAUGAAGCGCCGAGUAACGUUGCUCAGGCCGUAAUUGAAGCCCGUGGUAAAUAAGCCUAAGGGUUAAUACCAAAGUCCCGUGCUCUCUCCUGAAGGGGAGAGCACUAUAGUAAGGAAUAUAGCCGUGUCUAAAGAAAAAUUUGAACG"}},
  "test_system": "30S subunit (30S IC)",
  "assay": "30S IC formation by MST, mRNA titration",
  "assay_type": "binding, Escherichia coli",
  "conditions": "for MST Average / MST Replicates (a.u.): Fig 3B; for Kd: Fig 3C, from mRNA titration of 30S IC formation; for 30S IC formation MST signal, Average / 30S IC formation MST signal, replicates: Fig 6D",
  "excerpt": "Fig 1 Bacterial stringent response and experimental approach. (A) Schematics representing the onset of stringent response, (p)ppGpp accumulation, and gene expression regulation. Translation of stress-related mRNAs upon (p)ppGpp accumulating is the focus of the investigation (indicated as the red question mark). (B) Schematics of instrumentation for measuring 30S initiation complex (IC) by fluorescence Microscale Thermophoresis (MST) (provided by Nanotemper Technologies). […] Fluorophore excitation and measurement of the emitted fluorescence, together with IR-mediated perturbation of the equilibrium, are achieved through an objective and dichroic mirror. (C) Time courses of fluorescence showing the equilibrium relaxation upon thermal perturbation at varying ligand concentrations. Blue vertical lines indicate the fluorescence signal readout prior to the equilibrium perturbation (Fi), while vertical red lines indicate the fluorescence signal upon reaching the new equilibrium (Ff). Colored traces represent different concentrations of the titrating mRNA (0.1 to 4 μM). The ratio between the Ff over Fi times 1,000 is the normalized thermophoresis shift (MST). The dependency of MST shift on ligand concentration allows to estimate KD constants of the interaction using a hyperbolic or quadratic function and nonlinear regression fitting. MST measurements (closed circles) are indicated in the same colors as their respective time traces in (C). (D) Formation of 30S IC measured by MST. Time traces of thermophoresis (S1 Fig) were used to calculate MST values for all four combinations of mRNA start codons and labeled tRNAs for dependencies on mRNA concentration. […] Closed symbols indicate that Bpy-Met-tRNA^fMet was used, while open symbols correspond to Bpy-Phe-tRNA^Phe. Continuous lines indicate nonlinear regression fittings. Three to four measurements were performed; mean and error bars representing standard deviations are plotted (S1 Data).\nTo monitor the interaction of initiator tRNA and 30S ribosomal subunits, we used Microscale Thermophoresis (MST) with a fluorescently labelled initiator tRNA (Bpy-tRNAi) (Fig 1B). MST allows to measure fluorescence in a constrained space. Changes on the readout derive from molecular drifts resulting from small thermal equilibrium perturbations. Upon equilibrium perturbations, the patterns of Bpy-tRNAi migration away from the observation space are related to bound and unbound states (Fig 1B). […] On the contrary, a decrease in thermophoresis indicated the dissociation of Bpy-tRNAi. The relation between fluorescence measured at both equilibriums (Ff to Fi, after and prior to the perturbation, respectively) as a function of ligand concentration allowed to determine dissociation constants of the interaction (Fig 1C).\nBy observing the bound state of Bpy-tRNAi to the 30S subunit, MST could be measuring either IC, 30S pre-IC, or 30S IC, as they are identical in terms of ligand composition. […] To unambiguously assign which step is monitored by MST, we used different combinations of start codons and fluorescent tRNAs.\nMST was calculated from the respective fluorescence time dependencies (S3 Fig). […] Symbols as in (B). […] Continuous lines indicate nonlinear regression fittings with quadratic (B and E) or same-site competition (G) functions. Three measurements were performed; mean and standard deviations are plotted (S1 Data).",
  "key": {"[1]": {"conditions": "Fig 3D, efficiency of 30S IC formation"}},
  "note": "“And” between values parts separate entries of the source, which are not always exact repeats. Equal values may be shown once. Read-outs that look alike come from different tables or passages of the source.",
  "data": [
    {"molecule": "B1", "values": [
      {"measurement": "MST Average", "setting": "mRNA 0.004 μM", "value": 969.58, "unit": "a.u."},
      {"measurement": "MST Replicates (a.u.)", "setting": "mRNA 0.004 μM", "value": "968.54 a.u. and 970.25 a.u. and 969.97 a.u."},
      {"measurement": "MST Average", "setting": "mRNA 0.008 μM", "value": 969.59, "unit": "a.u."},
      {"measurement": "MST Replicates (a.u.)", "setting": "mRNA 0.008 μM", "value": "969.28 a.u. and 969.63 a.u. and 969.86 a.u."},
      {"measurement": "MST Average", "setting": "mRNA 0.016 μM", "value": 972.78, "unit": "a.u."},
      {"measurement": "MST Replicates (a.u.)", "setting": "mRNA 0.016 μM", "value": "971.79 a.u. and 972.82 a.u. and 973.72 a.u."},
      {"measurement": "MST Average", "setting": "mRNA 0.03 μM", "value": 974.49, "unit": "a.u."},
      {"measurement": "MST Replicates (a.u.)", "setting": "mRNA 0.03 μM", "value": "974.10 a.u. and 974.12 a.u. and 975.24 a.u."},
      {"measurement": "MST Average", "setting": "mRNA 0.06 μM", "value": 982.70, "unit": "a.u."},
      {"measurement": "MST Replicates (a.u.)", "setting": "mRNA 0.06 μM", "value": "982.27 a.u. and 982.61 a.u. and 983.22 a.u."},
      {"measurement": "MST Average", "setting": "mRNA 0.13 μM", "value": 997.76, "unit": "a.u."},
      {"measurement": "MST Replicates (a.u.)", "setting": "mRNA 0.13 μM", "value": "996.79 a.u. and 997.90 a.u. and 998.61 a.u."},
      {"measurement": "MST Average", "setting": "mRNA 0.25 μM", "value": 1022.60, "unit": "a.u."},
      {"measurement": "MST Replicates (a.u.)", "setting": "mRNA 0.25 μM", "value": "1021.41 a.u. and 1022.36 a.u. and 1024.04 a.u."},
      {"measurement": "MST Average", "setting": "mRNA 0.50 μM", "value": 1057.58, "unit": "a.u."},
      {"measurement": "MST Replicates (a.u.)", "setting": "mRNA 0.50 μM", "value": "1056.44 a.u. and 1057.96 a.u. and 1058.33 a.u."},
      {"measurement": "MST Average", "setting": "mRNA 1.00 μM", "value": 1095.54, "unit": "a.u."},
      {"measurement": "MST Replicates (a.u.)", "setting": "mRNA 1.00 μM", "value": "1094.17 a.u. and 1095.62 a.u. and 1096.83 a.u."},
      {"measurement": "MST Average", "setting": "mRNA 2.00 μM", "value": 1113.87, "unit": "a.u."},
      {"measurement": "MST Replicates (a.u.)", "setting": "mRNA 2.00 μM", "value": "1113.37 a.u. and 1113.82 a.u. and 1114.42 a.u."},
      {"measurement": "Kd", "setting": "read-out: Kd (μM) of the mRNA, Average", "value": 0.19, "unit": "µM"},
      {"measurement": "Kd", "setting": "read-out: Kd (μM) of the mRNA, single replicate", "value": "0.19 µM and 0.18 µM"},
      {"measurement": "MST Amplitude (a.u.), Average", "setting": "[1]", "value": 165.04, "unit": "a.u."},
      {"measurement": "MST Amplitude (a.u.), single replicate", "setting": "[1]", "value": "165.44 a.u. and 164.97 a.u. and 164.70 a.u."},
      {"measurement": "30S IC formation MST signal, Average", "setting": "mRNA 0.001 µM", "value": 934.16},
      {"measurement": "30S IC formation MST signal, replicates", "setting": "mRNA 0.001 µM", "value": "933.97 and 934.33 and 934.18"},
      {"measurement": "30S IC formation MST signal, Average", "setting": "mRNA 0.002 µM", "value": 931.08},
      {"measurement": "30S IC formation MST signal, replicates", "setting": "mRNA 0.002 µM", "value": "929.08 and 931.16 and 933.00"},
      {"measurement": "30S IC formation MST signal, Average", "setting": "mRNA 0.004 µM", "value": 929.10},
      {"measurement": "30S IC formation MST signal, replicates", "setting": "mRNA 0.004 µM", "value": "927.65 and 929.57 and 930.10"},
      {"measurement": "30S IC formation MST signal, Average", "setting": "mRNA 0.008 µM", "value": 927.54},
      {"measurement": "30S IC formation MST signal, replicates", "setting": "mRNA 0.008 µM", "value": "923.84 and 929.70 and 929.07"},
      {"measurement": "30S IC formation MST signal, Average", "setting": "mRNA 0.016 µM", "value": 926.63},
      {"measurement": "30S IC formation MST signal, replicates", "setting": "mRNA 0.016 µM", "value": "924.56 and 926.45 and 928.88"},
      {"measurement": "30S IC formation MST signal, Average", "setting": "mRNA 0.031 µM", "value": 928.44},
      {"measurement": "30S IC formation MST signal, replicates", "setting": "mRNA 0.031 µM", "value": "928.15 and 928.36 and 928.82"},
      {"measurement": "30S IC formation MST signal, Average", "setting": "mRNA 0.062 µM", "value": 934.74},
      {"measurement": "30S IC formation MST signal, replicates", "setting": "mRNA 0.062 µM", "value": "934.59 and 934.05 and 935.59"},
      {"measurement": "30S IC formation MST signal, Average", "setting": "mRNA 0.125 µM", "value": 947.53},
      {"measurement": "30S IC formation MST signal, replicates", "setting": "mRNA 0.125 µM", "value": "949.07 and 946.54 and 946.98"},
      {"measurement": "30S IC formation MST signal, Average", "setting": "mRNA 0.25 µM", "value": 962.80},
      {"measurement": "30S IC formation MST signal, replicates", "setting": "mRNA 0.25 µM", "value": "964.74 and 961.64 and 962.03"},
      {"measurement": "30S IC formation MST signal, Average", "setting": "mRNA 0.5 µM", "value": 989.99},
      {"measurement": "30S IC formation MST signal, replicates", "setting": "mRNA 0.5 µM", "value": "993.30 and 987.37 and 989.30"},
      {"measurement": "30S IC formation MST signal, Average", "setting": "mRNA 1 µM", "value": 1011.86},
      {"measurement": "30S IC formation MST signal, replicates", "setting": "mRNA 1 µM", "value": "1011.95 and 1011.22 and 1012.39"},
      {"measurement": "30S IC formation MST signal, Average", "setting": "mRNA 2 µM", "value": 1036.12},
      {"measurement": "30S IC formation MST signal, replicates", "setting": "mRNA 2 µM", "value": "1039.43 and 1034.52 and 1034.41"}
    ]}
  ]
}
